Measurements reported in patent publication US12514920B1, “Respiratory syncytial virus mRNA vaccine, and preparation method therefor and use thereof” (Hangzhou Tianlong Pharmaceutical Co., Ltd., priority 2024, dated 2026).

What was measured:
[1] = test system: RSV pre-F antibody (3C12); experiment: Binding of epitope Φ of RSV F antigen mutants by flow cytometry; conditions: for RSV pre-F antibody (3C12) Epitope Φ (%): binding rate, flow cytometry, 293T cells 16 h after mRNA-LNP transfection; for Φ/II (%): ratio of epitope Φ (3C12) to epitope II (11A9) binding rate
Excerpt: (§1) To investigate whether the RSV F antigen mutants have pre-fusion epitopes, an RSV pre-F antibody (3C12) (specifically binding to the RSV pre-F epitope […]) and an RSV F antibody (11A9) (binding to pre-F and post-F epitopes II) were detected by flow cytometry in this example, and RSV F protein mutants in the pre-F conformation were expected to bind to the antibodies tested.
(§2) • 293T cells (purchased from ATCC cell bank); RSV pre-F antibody (3C12), epitope […] (Novoprotein, Cat. No.: DA101); RSV F antibody (11A9), epitope II (Novoprotein, Cat. No.: DA091); • experimental groups: mRNA vaccines corresponding to the expressed antigens in Example 3;
(§3) • (1) Cell transfection: 293T cells were seeded at 1.3×10^5 cells/well in a 24-well plate. The next day, mRNA-LNP samples (containing 300 ng of mRNA) were added directly to the cells, and the mixture was uniformly mixed. • (2) Cell collection: The cells were taken out of the incubator after 16 h of transfection, the medium was pipetted off, 500 μL of 0.1% BSA solution was pipetted to wash the medium remaining in the well plate, taking care not to resuspend the cells, and the 0.1% BSA solution was pipetted off. 500 μL of 0.1% BSA solution was added to each well, and the cells were pipetted and transferred to a 1.5 mL centrifuge tube. • (3) Centrifugation: The cells were harvested by centrifugation at 400 g for 5 min at 4° C. in the dark, and the supernatant was discarded. • (4) Straining: 50.6 μL of RSV fluorescent antibody diluent was added to each of the control sample and the test samples to resuspend the cells, and the samples were incubated at 4° C. for 2 h in the dark. • (5) Cleaning: After the incubation was completed, 500 μL of 0.1% BSA solution was added to each tube, the cells were harvested by centrifugation at 400 g for 5 min at 4° C. in the dark, and the supernatant was discarded. This operation was repeated three times. • (6) Resuspension of cells: 200 μL of 0.1% BSA solution was added to each sample, and the cells were carefully pipetted to prepare a cell suspension. • (7) Detection on flow cytometer: The […] of RSV F mutants to antibodies were measured using flow cytometry, with 1×10^4 cells detected in each measurement.
(§4) The RSV pre-F antibody (3C12) used in this example specifically binds to the RSV pre-F epitope Φ, and the RSV F antibody (11A9) binds to the pre-F and post-F epitopes II. Whether the pre-fusion conformations of the RSV F mutants are stable can be further determined by detecting the binding of the epitope Φ and the epitope II on the mutants to corresponding epitopes of antibodies 3C12 and 11A9, respectively, by flow cytometry.

RSV F antibody (11A9) = experiment: Binding of epitope II of RSV F antigen mutants by flow cytometry; conditions: binding rate, 293T cells 16 h after mRNA-LNP transfection
Excerpt: as §1, §2, §3, §4

Row | Molecule | RSV pre-F antibody (3C12) Epitope Φ (%) [1] | Φ/II (%) [1] | RSV F antibody (11A9) Epitope II (%) (RSV F antibody (11A9))
1 | YK-RSV-014 (protein) QNITEEFYCSTCSAVSKGYLGALRTGWYTSVITIELSNIKENKCNGTDAKVKLIKQELDKYKNAVTDLQLLMQSTPATGSGSAICSGVAVSKVLHLEGEVNKIKSALLSTNKAVVSLSNGVSVLTIKVLDLKNYIDKQLLPIVNKQSCSIPNIETVIEFQQKNNRLLEITREFSVNAGVTTPVSTYMLTNSELLSLINDMPITNDQKKLMSNNVQIVRQQSYSIMSIIKEEVLAYVVQLPLYGVIDTPCWKLHTSPLCTTNTKEGSNICLTRTDRGWYCDNAGSVSFFPQAETCKVQSNRVFCDTMNSRTLPSEVNLCNVDIFNPKYDCKIMTSKTDVSSSVITSLGAIVSCYGKTKCTASNKNRGIIKTFSNGCDYVSNKGVDTVSVGNTLYCVNKQEGQSLYVKCEPIINFYDPLVFPSSEFDASISQVNEKINQSLAFIRKSDELLHNVNAGKSTTNIMITTIIIVIIVILLSLIAVGLLLY | 0.0% | 0.0% | 0.1%
2 | YK-RSV-033 (protein) QNITEEFYQSCCSAVSKGYLGALRTGWYTSVITIELSNIKENKCNGTDAKVKLIKQELDKYKNAVTDLQLLMQSTPATGSGSAIASGVAVSKVLHLEGEVNKIKSALLSTNKAVVSLSNGVSVLTFKVLDLKNYIDKQLLPILNKQSCSIPNIETVIEFQQKNNRLLEITREFSVNAGVTTPVSTYMLTNSELLSLINDMPITNDQKKLMSNNVQIVRQQSYSIMSIIKEEVLAYVVQLPLYGVIDTPCWKLHTSPLCTTNTKEGSNICLTRTDRGWYCDNAGSVSFFPQAETCKVQSNRVFCDTMNSRTLPSEVNLCNVDIFNPKYDCKIMTSKTDVSSSVITSLGAIVSCYGKTKCTASNKNRGIIKTFSNGCDYVSNKGVDTVSVGNTLYYVNKQEGQSLYVKCEPIINFYDPLVFPSDEFDASISQVNEKINQSLAFIRKSDELLHNVNAGKSTTNIMITTIIIVIIVILLSLIAVGLLLY | 72.0% | 87.4% | 82.4%
3 | YK-RSV-041 (protein) QNITEEFYQSTCSAVCKGYLGALRTGWYTSVITIELSNIKENKCNGTDAKVKLIKQELDKYKNAVTDLQLLMQSTPATGSGSAIASGVAVSKVLHLEGEVNKIKSALLSTNKAVVSLSNGVSVLTFKVLDLKNYIDKQLLPILNKQSCSIPNIETVIEFQQKNNRLLEITREFSVNAGVTTPVSTYMLTNSELLSLINDMPITNDQKKLMSNNVQIVRQQSYSIMSIIKEEVLAYVVQLPLYGVIDTPCWKLHTCPLCTTNTKEGSNICLTRTDRGWYCDNAGSVSFFPQAETCKVQSNRVFCDTMNSRTLPSEVNLCNVDIFNPKYDCKIMTSKTDVSSSVITSLGAIVSCYGKTKCTASNKNRGIIKTFSNGCDYVSNKGVDTVSVGNTLYYVNKQEGQSLYVKGEPIINFYDPLVFPSDEFDASISQVNEKINQSLAFIRKSDELLHNVNAGKSTTNIMITTIIIVIIVILLSLIAVGLLLY | 73.7% | 90.4% | 81.5%
4 | YK-RSV-018 (protein) QNITEEFYCSTCSAVSKGYLGALRTGWYTSVITIELSNIKENKCNGTDAKVKLIKQELDKYKNAVTDLQLLMQSTPATGSGSAICSGVAVSKVLHLEGEVNKIKSALLSTNKAVVSLSNGVSVLTFKVLDLKNYIDKQLLPIVNKQSCSIPNIEIVIEFQQKNNRLLEITREFSVNAGVTTPVSTYMLTNSELLSLINDMPITNDQKKLMSNNVQIVRQQSYSIMSIIKEEVLAYVVQLPLYGVIDTPCWKLHTSPLCTTNTKEGSNICLTRTDRGWYCDNAGSVSFFPQAETCKVQSNRVFCDTMNSRTLPSEVNLCNVDIFNPKYDCKIMTSKTDVSSSVITSLGAIVSCYGKTKCTASNKNRGIIKTFSNGCDYVSNKGVDTVSVGNTLYCVNKQEGQSLYVKCEPIINFYDPLVFPSSEFDASISQVNEKINQSLAFIRKSDELLHNVNAGKSTTNIMITTIIIVIIVILLSLIAVGLLLY | 68.4% | 89.6% | 76.3%
5 | YK-RSV-031 (protein) QNITEECYQSTCSAVSKGYLGALRTGWYTSVITIELSNIKENKCNGTDAKVKLIKQELDKYKNAVTDLQLLMQSTPATGSGSAIASGVAVSKVLHLEGEVNKIKSALLSTNKAVVSLSNGVSVLTFKVLDLKNYIDKQLLPILNKQSCSIPNIETVIEFQQKNNRLLEITREFSVNAGVTTPVSTYMLTNSELLSLINDMPITNDQKKLMSNNVQIVRQQSYSIMSIIKEEVLAYVVQLPLYGVIDTPCWKLHTSPLCTTNTKEGSNICLTRTDRGWYCDNAGSVSFFPQAETCKVQSNRVFCDTMNSRTLPSEVNLCNVDIFNPKYDCKIMTSKTDVSSSVITSLGAIVSCYGKTKCTASNKNRGIIKTFSNGCDYVSNKGVDTVSVGNTLYYVNKQEGQSLCVKGEPIINFYDPLVFPSDEFDASISQVNEKINQSLAFIRKSDELLHNVNAGKSTTNIMITTIIIVIIVILLSLIAVGLLLY | 75.5% | 90.5% | 83.4%
6 | YK-RSV-042 (protein) QNITEEFYQSTCSAVSKGCLGALRTGWYTSVITIELSNIKENKCNGTDAKVKLIKQELDKYKNAVTDLQLLMQSTPATGSGSAIASGVAVSKVLHLEGEVNKIKSALLSTNKAVVSLSNGVSVLTFKVLDLKNYIDKQLLPILNKQSCSIPNIETVIEFQQKNNRLLEITREFSVNAGVTTPVSTYMLTNSELLSLINDMPITNDQKKLMSNNVQIVRQQSYSIMSIIKEEVLAYVVQLPLYGVIDTPCWKLHTCPLCTTNTKEGSNICLTRTDRGWYCDNAGSVSFFPQAETCKVQSNRVFCDTMNSRTLPSEVNLCNVDIFNPKYDCKIMTSKTDVSSSVITSLGAIVSCYGKTKCTASNKNRGIIKTFSNGCDYVSNKGVDTVSVGNTLYYVNKQEGQSLYVKGEPIINFYDPLVFPSDEFDASISQVNEKINQSLAFIRKSDELLHNVNAGKSTTNIMITTIIIVIIVILLSLIAVGLLLY | 49.8% | 81.5% | 61.1%
7 | YK-RSV-022 (protein) QNITEEFYQSTCSAVSKGYLGALRTGWYTSVITIELSNIKENKCNGTDAKVKLIKQELDKYKNAVTDLQLLMQSTPACGSGSACASGVAVSKVLHLEGEVNKIKSALLSTNKAVVSLSGCGVSVLTFKVLDLKNYIDKQLLPIVNKQSCSIPNIETVIEFQQKNNRLLEITREFSVNAGVTTPVSTYMLTNSELLSLINDMPITNDQKKLMSNNVQIVRQQSYSIMSIIKEEVLAYVVQLPLYGVIDTPCWKLHTSPLCTTNTKEGSNICLTRTDRGWYCDNAGSVSFFPQAETCKVQSNRVFCDTMNSRTLPSEVNLCNVDIFNPKYDCKIMTSKTDVSSSVITSLGAIVSCYGKTKCTASNKCRGIIKTFSNGCDYVSNKGVDTVSVGNTLYYVNKQEGQSLYVKGEPIINFYDPLVFPSSEFDASISQVNEKINQSLAFIRKSDELLHNVNAGKSTTNIMITTIIIVIIVILLSLIAVGLLLY | 0.2% | 9.5% | 2.1%
